Consider 15 molecules from patent US20230279115A1 (MABWELL SHANGHAI BIOSCIENCE, published 2023).

What is called EC50 is the concentration needed to bring the measured effect to its halfway point. As a reminder, the Kd is the free concentration of one partner at which half of the binding sites on the other are occupied at equilibrium, for simple one-to-one binding. As a reminder, the koff is the rate constant with which the complex falls apart. Usually kon stands for the rate constant with which the complex forms. The IC50 is the point on the concentration scale where inhibition reaches its midpoint.

Assay [1] concerns the target T1, human PD-L1 expressed on the cell surface (human, UniProt Q9NZQ7 19-290). Nature of the assay: cell-based or functional assay.
Assay [2] concerns the target T1, human PD-L1 expressed on the cell …. Nature of the assay: flow cytometry on CHO-PD-L1-CD3L cells, FITC anti-human Fc. Here is the method: Cells (CHO-PD-L1-CD3L cells) were collected after centrifugation, divided into 5×10⁵ cells/sample/100 µL. Gradient diluted single variable domain antibody was added to the cells at a final concentration of 66 nM as the highest concentration, 3-fold serial dilution to make 10 gradients; then incubated on ice for 2h. The cells were washed twice with ice-cold PBS (containing 0.05% Tween). FITC-labeled anti-human Fc secondary antibody (Cat.: F9512, Sigma) was added, and incubated on ice for 1h. The cells were washed twice with ice-cold PBS (containing 0.05% Tween), resuspended in 200 µL of Flow Cytometry Buffer, and the mean fluorescence intensity (MFI) of the cells was detected by flow cytometer (Model B49007AD, SNAW31211, BECKMAN COULTER).
On the technique in general: In flow cytometry, cells or beads pass a laser one at a time.

Assay [3] deals with T2, human PD-L1 recombinant protein (human, UniProt Q9NZQ7 19-238).
T2 construct: also called recombinant PD-L1 protein; recombinant PD-L1
The assay is described as follows: BLI (Octet QKe), antibody captured on AHC probe, PD-L1 60 nM. Here is the method: Using the Octet QKe system instrument from Fortebio Company, the ability of chF2 to bind corresponding recombinant antigen was determined by using the capture antibody (AHC) biological probe against the Fc fragment of the human antibody to capture the Fc fragment of the antibody. During the measurement, chF2 was diluted with PBS buffer to 4 µg/mL, and flowed over the surface of AHC probe (Cat.: 18-0015, PALL) for 120 s. A human PD-L1 recombinant protein was used as the mobile phase to interact with the antibody captured on the chip surface. The recombinant PD-L1 protein concentration was 60 nM. The binding time for each antigen was 300 s, and the final dissociation time was 300 s.
Background: BLI is a label-free optical method that tracks binding on a fibre tip over time.

For assay [4], the target named is T3, monkey PD-L1 recombinant protein (monkey).
T3 construct: also called recombinant monkey PD-L1
Nature of the assay: BLI (Octet QKe), antibody captured on AHC probe, antigen 60 nM. How it is done:
(§1) The Octet QKe system instrument from Fortebio Company was used to determine whether chF2 could bind to recombinant monkey PD-L1 and recombinant murine PD-L1 by using the capture antibody (AHC) biological probe of anti-human antibody Fc segment to capture the Fc segment of the antibody. During the measurement, chF2 was diluted to 4 µg/mL with PBS buffer and flowed over the surface of AHC probe (PALL, Cat.: 18-0015) for 120 s. The monkey PD-L1 recombinant protein and the murine PD-L1 recombinant protein were used as mobile phases to interact with the antibodies captured on the surface of the chip. The PD-L1 recombinant protein concentration was 60 nM. The binding time of each antigen was 300 s, and the final dissociation time was 300 s.

The target of assay [5] is T4, murine PD-L1 recombinant protein (murine, UniProt Q9EP73 19-238, limits assumed).
T4 construct: also called recombinant murine PD-L1
The assay is described as follows: BLI (Octet QKe), antibody captured on AHC probe, antigen as mobile phase. Here is the method: as §1

Assay [6] has as its target T5, PD-L1-mFc (human, UniProt Q9NZQ7 19-238).
T5 construct: range 19-238; not shown: mouse Fc (mFc)
Nature of the assay: blocking ELISA: PD-1-hFc coated at 0.5 µg/mL, 0.5 µg/mL PD-L1-mFc co-incubated with the titrated binder (50 nM, 1.5-fold, 10 points), detection with HRP-anti-mouse Fc; blocked partner PD-1-hFc. Here is the method:
Human PD-1-hFc (PD-1 Sequence No. NP_005009.2, 21aa-167aa) was diluted with PBS to 0.5 µg/mL, coated on an ELISA plate overnight at 4° C. Then the plate was blocked with 5% BSA for 60 min at 37° C. in a thermostatic incubator. Gradient dilutions of hzF2 and control antibody KN035, and an isotype control NC-hIgG1 (initial working concentration of 50 nM, 1.5-fold dilution to 10 concentration gradients), were added, then PD-L1-mFc (PD-L1 Sequence No. NP_054862.1, 19aa-238aa) was added at a working concentration of 0.5 µg/mL, co-incubated and reacted in a thermostatic incubator at 37° C. for 60 min. The plate was washed 4 times with PBST; then added 1:5000 diluted HRP-anti-mouse Fc (Cat.:115-035-071, Jackson Immuno Research) thereto, reacted for 45 min, and added TMB (Beijing Taitianhe Biology, Cat.: ME142) substrate to develop color for 15 min. After adding 2 M HCl to stop the reaction, the plate was read and recorded about the absorbance value of A450nm-630nm of the well plate by a reader taking 630 nm as the reference wavelength, and 450 nm as the detection wavelength.
A general note: An ELISA detects its analyte on a solid surface through an enzyme-linked reagent.

Assay [7] concerns the target T2, human PD-L1 recombinant protein. The assay is described as follows: BLI, human PD-L1 recombinant protein.
The target is the same in assay [8]. Nature of the assay: BLI (method per paragraph 89); target not given, taken as human PD-L1 recombinant protein.

T2 sequence (Q9NZQ7 19-238 limits assumed): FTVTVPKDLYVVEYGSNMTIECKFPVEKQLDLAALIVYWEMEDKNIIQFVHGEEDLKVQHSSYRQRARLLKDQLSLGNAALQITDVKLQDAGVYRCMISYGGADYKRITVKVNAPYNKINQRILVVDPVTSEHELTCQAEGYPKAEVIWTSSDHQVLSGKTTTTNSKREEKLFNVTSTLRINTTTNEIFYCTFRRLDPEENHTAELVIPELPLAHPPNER
T1 sequence (Q9NZQ7 19-290): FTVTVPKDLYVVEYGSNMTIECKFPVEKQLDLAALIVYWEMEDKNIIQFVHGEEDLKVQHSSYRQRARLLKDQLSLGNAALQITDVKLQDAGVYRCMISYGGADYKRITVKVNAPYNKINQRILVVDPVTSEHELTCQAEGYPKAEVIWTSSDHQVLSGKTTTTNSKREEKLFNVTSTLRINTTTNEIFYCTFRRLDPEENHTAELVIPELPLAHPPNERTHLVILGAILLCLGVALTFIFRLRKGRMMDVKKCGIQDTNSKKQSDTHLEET
T4 sequence (Q9EP73 19-238 limits assumed): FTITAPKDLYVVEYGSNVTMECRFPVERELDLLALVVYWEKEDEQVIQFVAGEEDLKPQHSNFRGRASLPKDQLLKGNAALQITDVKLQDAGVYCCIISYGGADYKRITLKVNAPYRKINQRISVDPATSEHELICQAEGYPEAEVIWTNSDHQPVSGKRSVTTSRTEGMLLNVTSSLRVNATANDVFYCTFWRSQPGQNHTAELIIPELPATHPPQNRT
T5 sequence (Q9NZQ7 19-238 limits assumed): as the sequence (Q9NZQ7 19-238 limits assumed) above

B1: KN035 (fusion protein of the KN035 variable region and Fc) (Fc fusion)
chain: QVQLVESGGGLVQPGGSLRLSCAASGKMSSRRCMAWFRQAPGKERERVAKLLTTSGSTYLADSVKGRFTISRDNSKNTVYLQMNSLRAEDTAVYYCAADSFEDPTCTLVTSSGAFQYWGQGTLVTVSS
notes: Built by the same strategy as chF2; also called Envafolimab; control antibody; not shown: human Fc (IgG1, hFc) from the same expression vector and strategy as chF2
On to B1, for which, in assay [1], the “Reporter Gene Assay (Jurkat-PD1-NFAT cells and CHO-PD-L1-CD3L cells), luciferase RLU, EC50” value came to 4.9 nM. Besides, in assay [2], the EC50 worked out at 1.27 nM. In assay [3], the Kd amounted to 1.5 nM, the koff was determined as 0.00035 s⁻¹ and the kon is 233000 M⁻¹ s⁻¹. In addition, in assay [4], the Kd turned out to be 1.32 nM, the koff was determined as 0.000281 s⁻¹ and the kon was 213000 M⁻¹ s⁻¹. Besides, the binding result in assay [5] is listed as “no binding (tested: 60 nM)”. Moreover, in assay [6], the IC50 turned out to be 8.1 nM.

B2: hzF2-m9 (VHH)
VHH: EVQLVESGGGLVQPGGSLRLSCAASRDSDEGASCMGWFRQAPGKEREGVAIIFNAGERTDYGDSVKGRFTISRDNAKNTLYLQMNSLRAEDTAVYYCATVWCGSWVARSWGQGTLVTVSS
notes: also called humanized single variable domain antibody hzF2-m9
Consider B2, for which, in assay [7], the Kd is 1.34 nM, the koff is 0.000434 s⁻¹ and the kon was 324000 M⁻¹ s⁻¹. For the same molecule, the Kd in assay [8] amounted to 1.34 nM.

B3: hzF2-m13 (VHH)
VHH: EVQLVESGGGLVQPGGSLRLSCAASRDSDDGASCMGWFRQAPGKEREGVAIIFNAGERTDYGDSVKGRFTISRDNAKNTLYLQMNSLRAEDTAVYYCATVFCGSFVARSWGQGTLVTVSS
notes: Framework 2 is KEREG; also called humanized single variable domain antibody hzF2-m13
As to B3, the Kd in assay [8] amounted to 4.26 nM.

B4: hzF2-m10 (VHH)
VHH: EVQLVESGGGLVQPGGSLRLSCAASRDSDDGASCMGWFRQAPGKEREGVAIIFNAGERTDYGDSVKGRFTISRDNAKNTLYLQMNSLRAEDTAVYYCATVYCGSWVARSWGQGTLVTVSS
notes: Framework 2 is KEREG; also called humanized single variable domain antibody hzF2-m10
With B4, in assay [8], the Kd came out at 4.31 nM.

B5: hzF2-m14 (VHH)
VHH: EVQLVESGGGLVQPGGSLRLSCAASRDSDEGASCMGWFRQAPGKEREGVAIIFNVGERTDYGDSVKGRFTISRDNAKNTLYLQMNSLRAEDTAVYYCATVYCGSYVARSWGQGTLVTVSS
notes: Framework 2 is KEREG; also called humanized single variable domain antibody hzF2-m14
B5: the Kd in assay [8] worked out at 3.81 nM.

B6: hzF2-m7 (VHH)
VHH: EVQLVESGGGLVQPGGSLRLSCAASRDSDDSASCMGWFRQAPGKGLEGVAIIFNAGERTDYGDSVKGRFTISRDNAKNTLYLQMNSLRAEDTAVYYCATVWCGSWVARSWGQGTLVTVSS
notes: The parent hzF2 is a VHH-human IgG1 Fc fusion; also called humanized single variable domain antibody hzF2-m7
For B6, in assay [7], the Kd is 4.59 nM, the koff was determined as 0.00157 s⁻¹ and the kon was 341000 M⁻¹ s⁻¹. Also, the Kd in assay [8] came out at 4.59 nM.

B7: hzF2-m8 (VHH)
VHH: EVQLVESGGGLVQPGGSLRLSCAASRDSDDGASCMGWFRQAPGKEREGVAIIFNVGERTDYGDSVKGRFTISRDNAKNTLYLQMNSLRAEDTAVYYCATVWCGSWVARSWGQGTLVTVSS
notes: also called humanized single variable domain antibody hzF2-m8
Consider B7, for which, in assay [7], the Kd is 1.18 nM, the koff worked out at 0.000419 s⁻¹ and the kon was determined as 356000 M⁻¹ s⁻¹. For the same molecule, the Kd in assay [8] was determined as 1.18 nM.

B8: hzF2-m15 (VHH)
VHH: EVQLVESGGGLVQPGGSLRLSCAASRDSDEGASCMGWFRQAPGKEREGVAIIFNVGERTDYGDSVKGRFTISRDNAKNTLYLQMNSLRAEDTAVYYCATVFCGSYVARSWGQGTLVTVSS
notes: Framework 2 is KEREG; also called humanized single variable domain antibody hzF2-m15
On to B8, for which the Kd in assay [8] was 4.75 nM.

B9: hzF2-m2 (VHH)
VHH: EVQLVESGGGLVQPGGSLRLSCAASGDSDDGASCMGWFRQAPGKGLEGVAIIFNAGERTDYGDSVKGRFTISRDNAKNTLYLQMNSLRAEDTAVYYCATVWCGSWVARSWGQGTLVTVSS
notes: The parent hzF2 is a VHH-human IgG1 Fc fusion; also called humanized single variable domain antibody hzF2-m2
As to B9, in assay [7], the Kd worked out at 1.26 nM, the koff is 0.000709 s⁻¹ and the kon was 562000 M⁻¹ s⁻¹. Besides, in assay [8], the Kd worked out at 1.26 nM.

B10: hzF2-m4 (VHH)
VHH: EVQLVESGGGLVQPGGSLRLSCAASRDSNDGASCMGWFRQAPGKGLEGVAIIFNAGERTDYGDSVKGRFTISRDNAKNTLYLQMNSLRAEDTAVYYCATVWCGSWVARSWGQGTLVTVSS
notes: The parent hzF2 is a VHH-human IgG1 Fc fusion; also called humanized single variable domain antibody hzF2-m4
On to B10, for which, in assay [7], the Kd was 9.36 nM, the koff came to 0.0065 s⁻¹ and the kon is 695000 M⁻¹ s⁻¹. The Kd in assay [8] is 9.36 nM.

B11: hzF2-m3 (VHH)
VHH: EVQLVESGGGLVQPGGSLRLSCAASRDSSSGASCMGWFRQAPGKGLEGVAIIFNAGERTDYGDSVKGRFTISRDNAKNTLYLQMNSLRAEDTAVYYCATVWCGSWVARSWGQGTLVTVSS
notes: The parent hzF2 is a VHH-human IgG1 Fc fusion; also called humanized single variable domain antibody hzF2-m3
For the molecule B11, in assay [7], the Kd came to 7.8 nM, the koff amounted to 0.00487 s⁻¹ and the kon is 624000 M⁻¹ s⁻¹. Also, the Kd in assay [8] is 7.8 nM.

B12: hzF2-m12 (VHH)
VHH: EVQLVESGGGLVQPGGSLRLSCAASRDSDEGASCMGWFRQAPGKEREGVAIIFNVGERTDYGDSVKGRFTISRDNAKNTLYLQMNSLRAEDTAVYYCATVWCGSWVARSWGQGTLVTVSS
notes: Framework 2 is KEREG; also called humanized single variable domain antibody hzF2-m12
B12: in assay [8], the Kd was 1.54 nM.

B13: hzF2-m16 (VHH)
VHH: EVQLVESGGGLVQPGGSLRLSCAASRDSDEGASCMGWFRQAPGKEREGVAIIFNVGERTDYGDSVKGRFTISRDNAKNTLYLQMNSLRAEDTAVYYCATVFCGSFVARSWGQGTLVTVSS
notes: Framework 2 is KEREG; also called humanized single variable domain antibody hzF2-m16
In the case of B13, in assay [8], the Kd stood at 3.18 nM.

B14: hzF2-m11 (VHH)
VHH: EVQLVESGGGLVQPGGSLRLSCAASRDSDDGASCMGWFRQAPGKEREGVAIIFNAGERTDYGDSVKGRFTISRDNAKNTLYLQMNSLRAEDTAVYYCATVYCGSYVARSWGQGTLVTVSS
notes: Framework 2 is KEREG; also called humanized single variable domain antibody hzF2-m11
Consider B14, for which, in assay [8], the Kd is 3.24 nM.

B15: hzF2-m1 (VHH)
VHH: EVQLVESGGGLVQPGGSLRLSCAASRDSDDGASSMGWFRQAPGKGLEGVAIIFNAGERTDYGDSVKGRFTISRDNAKNTLYLQMNSLRAEDTAVYYCATVWSGSWVARSWGQGTLVTVSS
notes: The parent hzF2 is a VHH-human IgG1 Fc fusion; also called humanized single variable domain antibody hzF2-m1
On to B15, for which, in assay [7], the Kd was 2.8 nM, the koff was found to be 0.0019 s⁻¹ and the kon was found to be 679000 M⁻¹ s⁻¹. For the same molecule, the Kd in assay [8] was 2.8 nM.
